Patent US11833164B2, “Methods of treating Fabry disease in patients having a mutation in the GLA gene” (Amicus Therapeutics, Inc., priority 2019, dated 2023)

Test system: mutant form of α-Gal A expressed in HEK-293 cells
Test: HEK assay (GLP HEK / Migalastat Amenability Assay): α-Gal A activity in lysates of transiently transfected HEK-293 cells incubated with or without 10 μM migalastat
Type: cell-based, human
Details: for Absolute increase (% WT): 10 μM migalastat versus baseline; for Relative increase: 10 μM migalastat α-Gal A activity relative to baseline; for 10 μM migalastat α-Gal A activity (% WT): 5 days; for 10 μM migalastat α-Gal A activity (% WT) / Baseline α-Gal A activity (% WT): percentage of baseline wild-type α-Gal A activity; for 10 μM migalastat α-Gal A activity (% WT) / Baseline α-Gal A activity (% WT) / Baseline α-Gal A activity / 10 μM migalastat α-Gal A activity: mean ± SEM; for Baseline α-Gal A activity (% WT): absence of migalastat; for Baseline α-Gal A activity / 10 μM migalastat α-Gal A activity: lysates of HEK-293 cells transfected with the mutant form; for Baseline α-Gal A activity: incubated 5 days in the absence of migalastat; for 10 μM migalastat α-Gal A activity: incubated 5 days with 10 μM migalastat
Outline: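 Activity reported as 4-MU released (nmol/mg/hr), mean±SEM, from lysates of transiently transfected HEK-293 cells expressing mutant α-Gal A, cultured with or without 10 μM migalastat.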

Row | Molecule | Absolute increase (% WT) | Relative increase | 10 μM migalastat α-Gal A activity (% WT) | Baseline α-Gal A activity (% WT) | Baseline α-Gal A activity [nmol/mg/h] | 10 μM migalastat α-Gal A activity [nmol/mg/h]
1 | L166M (protein) MQLRNPELHLGCALALRFLALVSWDIPGARALDNGLARTPTMGWLHWERFMCNLDCQEEPDSCISEKLFMEMAELMVSEGWKDAGYEYLCIDDCWMAPQRDSEGRLQADPQRFPHGIRQLANYVHSKGLKLGIYADVGNKTCAGFPGSFGYYDIDAQTFADWGVDMLKFDGCYCDSLENLADGYKHMSLALNRTGRSIVYSCEWPLYMWPFQKPNYTEIRQYCNHWRNFADIDDSWKSIKSILDWTSFNQERIVDVAGPGGWNDPDMLVIGNFGLSWNQQVTQMALWAIMAAPLFMSNDLRHISPQAKALLQDKDVIAINQDPLGKQGYQLRQGDNFEVWERPLSGLAWAVAMINRQEIGGPRSYTIAVASLGKGVACNPACFITQLLPVKRKLGFYEWTSRLRSHINPTGTVLLQLENTMQMSLKDLL | 48.8 | 1.8 | 104 ± 7.3 | 55.2 ± 4.5 | 15603 ± 1630 | 27922 ± 1578
2 | L166Q (protein) MQLRNPELHLGCALALRFLALVSWDIPGARALDNGLARTPTMGWLHWERFMCNLDCQEEPDSCISEKLFMEMAELMVSEGWKDAGYEYLCIDDCWMAPQRDSEGRLQADPQRFPHGIRQLANYVHSKGLKLGIYADVGNKTCAGFPGSFGYYDIDAQTFADWGVDQLKFDGCYCDSLENLADGYKHMSLALNRTGRSIVYSCEWPLYMWPFQKPNYTEIRQYCNHWRNFADIDDSWKSIKSILDWTSFNQERIVDVAGPGGWNDPDMLVIGNFGLSWNQQVTQMALWAIMAAPLFMSNDLRHISPQAKALLQDKDVIAINQDPLGKQGYQLRQGDNFEVWERPLSGLAWAVAMINRQEIGGPRSYTIAVASLGKGVACNPACFITQLLPVKRKLGFYEWTSRLRSHINPTGTVLLQLENTMQMSLKDLL | 29.2 | 2.6 | 47.6 ± 1.9 | 18.4 ± 1.2 | 5656 ± 325 | 14720 ± 616
3 | F169C (protein) MQLRNPELHLGCALALRFLALVSWDIPGARALDNGLARTPTMGWLHWERFMCNLDCQEEPDSCISEKLFMEMAELMVSEGWKDAGYEYLCIDDCWMAPQRDSEGRLQADPQRFPHGIRQLANYVHSKGLKLGIYADVGNKTCAGFPGSFGYYDIDAQTFADWGVDLLKCDGCYCDSLENLADGYKHMSLALNRTGRSIVYSCEWPLYMWPFQKPNYTEIRQYCNHWRNFADIDDSWKSIKSILDWTSFNQERIVDVAGPGGWNDPDMLVIGNFGLSWNQQVTQMALWAIMAAPLFMSNDLRHISPQAKALLQDKDVIAINQDPLGKQGYQLRQGDNFEVWERPLSGLAWAVAMINRQEIGGPRSYTIAVASLGKGVACNPACFITQLLPVKRKLGFYEWTSRLRSHINPTGTVLLQLENTMQMSLKDLL | 26.9 | 2.4 | 44.9 ± 2.3 | 18.1 ± 2 | 6861 ± 977 | 16396 ± 1516
4 | F169L (protein) MQLRNPELHLGCALALRFLALVSWDIPGARALDNGLARTPTMGWLHWERFMCNLDCQEEPDSCISEKLFMEMAELMVSEGWKDAGYEYLCIDDCWMAPQRDSEGRLQADPQRFPHGIRQLANYVHSKGLKLGIYADVGNKTCAGFPGSFGYYDIDAQTFADWGVDLLKLDGCYCDSLENLADGYKHMSLALNRTGRSIVYSCEWPLYMWPFQKPNYTEIRQYCNHWRNFADIDDSWKSIKSILDWTSFNQERIVDVAGPGGWNDPDMLVIGNFGLSWNQQVTQMALWAIMAAPLFMSNDLRHISPQAKALLQDKDVIAINQDPLGKQGYQLRQGDNFEVWERPLSGLAWAVAMINRQEIGGPRSYTIAVASLGKGVACNPACFITQLLPVKRKLGFYEWTSRLRSHINPTGTVLLQLENTMQMSLKDLL | 34.5 | 1.7 | 82.3 ± 3.2 | 47.8 ± 2.9 | 15588 ± 1463 | 26527 ± 1806
5 | L167I (protein) MQLRNPELHLGCALALRFLALVSWDIPGARALDNGLARTPTMGWLHWERFMCNLDCQEEPDSCISEKLFMEMAELMVSEGWKDAGYEYLCIDDCWMAPQRDSEGRLQADPQRFPHGIRQLANYVHSKGLKLGIYADVGNKTCAGFPGSFGYYDIDAQTFADWGVDLIKFDGCYCDSLENLADGYKHMSLALNRTGRSIVYSCEWPLYMWPFQKPNYTEIRQYCNHWRNFADIDDSWKSIKSILDWTSFNQERIVDVAGPGGWNDPDMLVIGNFGLSWNQQVTQMALWAIMAAPLFMSNDLRHISPQAKALLQDKDVIAINQDPLGKQGYQLRQGDNFEVWERPLSGLAWAVAMINRQEIGGPRSYTIAVASLGKGVACNPACFITQLLPVKRKLGFYEWTSRLRSHINPTGTVLLQLENTMQMSLKDLL | 26.1 | 1.6 | 72.9 ± 2.7 | 46.8 ± 2.2 | 14763 ± 942 | 22948 ± 1321
6 | F169V (protein) MQLRNPELHLGCALALRFLALVSWDIPGARALDNGLARTPTMGWLHWERFMCNLDCQEEPDSCISEKLFMEMAELMVSEGWKDAGYEYLCIDDCWMAPQRDSEGRLQADPQRFPHGIRQLANYVHSKGLKLGIYADVGNKTCAGFPGSFGYYDIDAQTFADWGVDLLKVDGCYCDSLENLADGYKHMSLALNRTGRSIVYSCEWPLYMWPFQKPNYTEIRQYCNHWRNFADIDDSWKSIKSILDWTSFNQERIVDVAGPGGWNDPDMLVIGNFGLSWNQQVTQMALWAIMAAPLFMSNDLRHISPQAKALLQDKDVIAINQDPLGKQGYQLRQGDNFEVWERPLSGLAWAVAMINRQEIGGPRSYTIAVASLGKGVACNPACFITQLLPVKRKLGFYEWTSRLRSHINPTGTVLLQLENTMQMSLKDLL | 42.8 | 5.6 | 53 ± 2.1 | 10.2 ± 0.9 | 2870 ± 239 | 16145 ± 1680
